The record followed here is publication PMC2114693.

A word on the IC50: it is the concentration that gives 50% inhibition.

The test deals with human erythrocyte adducin (human) (UniProt P35611). Briefly: co-sedimentation.
Sequence of human erythrocyte adducin (human) (P35611 whole entry, chain 1 of 2): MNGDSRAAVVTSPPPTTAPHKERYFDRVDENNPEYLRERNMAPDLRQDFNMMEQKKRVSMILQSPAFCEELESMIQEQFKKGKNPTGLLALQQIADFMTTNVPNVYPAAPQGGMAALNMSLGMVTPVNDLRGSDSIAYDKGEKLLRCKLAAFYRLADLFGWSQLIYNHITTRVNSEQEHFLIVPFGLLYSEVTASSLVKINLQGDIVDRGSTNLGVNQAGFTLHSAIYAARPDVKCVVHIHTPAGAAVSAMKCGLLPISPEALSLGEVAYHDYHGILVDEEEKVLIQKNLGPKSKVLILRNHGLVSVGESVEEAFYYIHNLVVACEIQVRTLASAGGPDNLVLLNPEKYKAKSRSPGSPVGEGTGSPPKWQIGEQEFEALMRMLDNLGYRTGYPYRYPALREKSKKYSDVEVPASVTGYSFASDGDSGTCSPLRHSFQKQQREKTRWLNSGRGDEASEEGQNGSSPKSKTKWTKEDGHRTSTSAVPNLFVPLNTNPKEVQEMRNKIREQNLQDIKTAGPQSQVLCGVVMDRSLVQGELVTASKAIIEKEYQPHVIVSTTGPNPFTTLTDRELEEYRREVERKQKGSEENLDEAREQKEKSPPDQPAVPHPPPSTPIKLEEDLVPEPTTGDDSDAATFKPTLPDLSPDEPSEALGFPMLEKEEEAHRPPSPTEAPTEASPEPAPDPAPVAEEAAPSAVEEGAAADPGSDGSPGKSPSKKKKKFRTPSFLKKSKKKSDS
Sequence of human erythrocyte adducin (human) (P35612 whole entry, chain 2 of 2, further chain): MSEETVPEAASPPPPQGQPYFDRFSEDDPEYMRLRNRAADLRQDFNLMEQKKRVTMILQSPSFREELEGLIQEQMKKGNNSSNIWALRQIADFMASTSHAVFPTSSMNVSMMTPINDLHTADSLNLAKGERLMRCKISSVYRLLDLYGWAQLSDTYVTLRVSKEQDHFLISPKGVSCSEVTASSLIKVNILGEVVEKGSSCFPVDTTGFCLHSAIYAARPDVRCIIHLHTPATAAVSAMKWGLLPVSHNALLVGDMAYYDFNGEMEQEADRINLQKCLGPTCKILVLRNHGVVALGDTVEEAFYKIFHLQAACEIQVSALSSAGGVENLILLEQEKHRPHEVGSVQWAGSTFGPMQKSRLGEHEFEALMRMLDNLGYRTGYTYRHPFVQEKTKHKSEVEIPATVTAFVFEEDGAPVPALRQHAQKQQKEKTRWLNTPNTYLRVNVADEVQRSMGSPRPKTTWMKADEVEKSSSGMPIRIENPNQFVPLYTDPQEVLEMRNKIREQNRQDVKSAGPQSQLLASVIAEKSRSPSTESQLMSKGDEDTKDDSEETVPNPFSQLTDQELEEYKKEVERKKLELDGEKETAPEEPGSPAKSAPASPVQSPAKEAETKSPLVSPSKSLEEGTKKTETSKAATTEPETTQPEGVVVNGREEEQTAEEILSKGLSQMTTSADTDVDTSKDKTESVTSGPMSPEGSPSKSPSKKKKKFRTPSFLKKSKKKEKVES

On to “bovine brain calmodulin (from UniProt P62157 1-149) (natural protein)”, for which the IC50 amounted to 4 µM.
